Results from article PMC7692894.

Tests used:
[1] = biological target: milk-derived short digestion-resistant peptides with the mass <3 kDa; assay: SEC; milk peptide fraction <3 kDa (MP) run beside pepsin autoproteolysis peptides (PP); physiologically relevant conditions; area under the curve at 215 nm; details in Supplementary Information
[2] = as above

## milk-derived short digestion-resistant peptides with the mass <3 kDa
[1]
  stoichiometry N: > 4
[2]
  percent of the peptides aggregated: 43.5% of the peptides aggregated into larger complexes
